Experimental data: patent CN115141270A (SHENZHEN KANGMAI BIOTECHNOLOGY CO LTD, dated 2022)

Key:
[1] = molecular target: SARS-CoV-2 英国流行株 (MW255832) live virus, spike glycoprotein (SARS-CoV-2); experiment: cell-based or functional assay
[2] = molecular target: SARS-CoV-2 东南亚株 (MW341443) live virus, spike glycoprotein (SARS-CoV-2); experiment: cell-based or functional assay

B1: 抗体nCoV617 (anti-coronavirus spike glycoprotein human monoclonal antibody) (antibody, V domains shown)
VH: QVQLVESGGGVVQPGRSLRLSCAASGFTFSSYAMHWVRQAPGKGLEWVALISYDGSNKYYADSVKGRFTISRDNSKNTLYLQMNSLRAEDTAVYYCARGLGLRFLEWPISSYWGQGTLVTVSS
VL: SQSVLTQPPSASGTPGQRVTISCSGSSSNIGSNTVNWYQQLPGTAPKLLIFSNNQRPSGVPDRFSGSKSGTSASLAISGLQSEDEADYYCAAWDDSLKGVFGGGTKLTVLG
notes: also called 抗S蛋白抗体; 抗冠状病毒刺突糖蛋白单克隆抗体
IC50 (neutralisation of live virus on Vero E6 cells, cytopathic effect) [1]: 1.1 µg/mL
IC50 (neutralisation of live virus on Vero E6 cells, cytopathic effect) [2]: 0.87 µg/mL
